Test results as given in the supplement of paper PMC10567573.

B1: C8orf76 (parent)
chain: YCAKLCEPQWFYEETESSDDVEVL
B2: ZNF449 (parent)
chain: QLTGHQRIHSGEEPHKCPECGKRF

Variants of: B1
Test: protein stability index of a GFP-peptide fusion (GPS, HEK-293T) (PSI 1-6); higher = more stable
Details: c terminus: a fixed tail appended
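Further: lentivirally expressed fusions sorted by FACS into six bins by GFP to DsRed ratio, PSI derived from sequencing read proportions per bin multiplied by bin number.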

Protein stability index: each site, then its substitutions
W10: N 4.07, E 3.98, D 4.5, G 4.02, S 4.48, L 3.04, K 4.15, A 4.04, H 3.52, M 3.51, V 3.35, T 4.34, F 3.22, C 3.87, Q 4.45, I 3.45, Y 2.71, R 4.74, P 3.92
Y1: H 4.36, L 3.71, T 5.11, I 3.45, C 4.28, Q 4.45, S 4.19, M 4.26, D 5.04, K 4.66, E 4.99, F 1.91, G 4.56, W 3.66, R 4.92, P 4.76, A 4.42, N 5.01, V 4.2
L5: I 1.98, T 2.78, Y 3.33, N 3.31, H 2.72, A 2.62, W 1.28, K 2.05, C 3.03, E 2.94, F 2.29, S 2.04, Q 2.63, D 3.42, G 2.99, P 2.15, M 2.97, R 2.44, V 2.4
C6: A 2.95, F 2.41, Q 3.02, R 2.21, H 2.32, G 1.52, W 1.77, L 2.96, I 2.88, E 3.63, M 2.79, N 2.36, D 2.93, K 2.93, V 3.3, T 1.84, S 2.18, P 2.86, Y 2.29
K4: I 2.29, P 2.43, G 1.98, S 2.01, F 2.56, Q 3.46, W 2.08, M 2.48, Y 3.2, C 2.96, D 3.69, T 2.94, E 4.61, N 4.3, H 2.84, L 2.71, V 3.05, R 2.54, A 2.54
P8: W 2.27, G 2.56, M 2.32, N 2.69, L 1.67, F 1.94, I 1.58, R 1.86, E 3.1, Q 2.55, V 2.19, K 1.62, T 2.55, A 2.09, Y 1.76, H 2.12, C 1.73, S 2.62, D 3.18
Y12: I 1.97, A 2.28, C 1.98, K 2.39, S 2.52, L 2.14, P 3.15, W 1.8, G 2.62, T 1.82, F 2.43, R 2.76, N 2.62, M 1.97, V 2.16, H 2.44, Q 2.23, E 3.35, D 3.63
Q9: C 1.93, K 2.09, S 2.4, E 3.13, P 2.03, M 1.88, D 3.86, Y 2.66, W 1.04, N 2.17, I 2.22, V 1.74, L 2.14, H 2.13, F 2.19, R 1.41, A 2.46, G 2.15, T 2.29
A3: Y 2.83, K 3.07, N 2.74, E 4.06, L 2.78, G 2.01, S 2.78, P 1.71, C 2.7, F 2.3, M 3.1, I 2.51, Q 2.28, D 3.48, T 2.45, W 1.95, H 2.59, R 1.75, V 3.04
F11: R 2.89, W 2.63, S 3.54, C 3.41, I 2.75, H 2.71, L 3.56, D 4.38, M 3.28, G 3.43, V 3.38, Q 3.57, P 3.44, N 3.48, Y 1.88, E 4.83, K 3.96, A 3.01, T 3.48
E13: D 2.04, A 2.11, G 1.26, F 2.16
C2: Y 2.87, F 2.59, R 4.17, Q 2.51, D 4.96, I 2.65, L 2.94, K 4.17, T 3.22, A 1.94, H 1.68, S 3.63, W 2.82, N 2.91, M 3.62, V 2.1, E 4.91, G 3.72, P 4.2
E7: Y 2.2, V 2.3, I 2.32, W 1.63, G 2.43, P 2.46, N 2.67, K 2.78, A 2.27, M 2.49, D 3.69, R 2.6, F 2.33, H 2.57, L 2.83, C 2.69, T 2.5, S 2.82, Q 3.27

Variants of: B2
Test: as above
Details: c terminus: a fixed tail appended

Protein stability index: each site, then its substitutions
E19: Q 3.23, Y 3.95, F 3.69, S 3.62, M 4.05, T 4.03, V 4.53, K 3.33, W 3.61, D 3.4, R 3.15, N 4.01, L 3.16, H 4.12, G 3.09, I 3.37, P 4.23
C20: S 4.37, M 3.82, E 5.41, R 5.4, D 5.03, Q 4.79, V 3.71, H 4.46, W 4.34, F 4.39, I 4.36, N 4.49, Y 4.67, P 4.61, K 4.99, T 4.87, G 4.49, L 4.05, A 4.35
K22: C 4.2, W 3.6, E 4.62, S 4.71, M 4.43, F 4.03, N 4.16, R 4, V 4.51, H 4.3, I 3.73, Q 3.85, T 4.21, L 4.29, Y 4.3, D 4.49, P 4.22, A 4.72
R23: P 4.28, A 4.91, D 4.99, L 4.74, H 4.23, W 3.92, K 5.28, M 4.06, V 4.72, T 4.52, E 5.37, C 3.93, F 3.98, Q 3.44, N 3.95, G 4.32, S 4.83
F24: C 5.12, T 4.83, A 5.07, L 4.64, G 4.7, Y 4.58, Q 4.62, I 3.65, N 4.4, H 4.84, M 4.13, E 4.88
G21: V 4.49, L 4.6, I 4.34, T 4.47, S 4.32, R 4.34, Y 3.6, D 4.36, K 4.41, C 3.77, F 4.19, M 4.53, A 4.21, H 4.08, W 3.73, N 4.47, E 4.87, P 4.7, Q 4.47
